Reference: paper PMC314469, “Protein Interaction Networks by Proteome Peptide Scanning” (PLoS Biology, 2004)

T1: Abp1 SH3 (ABP1_YEAST), P15891
T1 chain: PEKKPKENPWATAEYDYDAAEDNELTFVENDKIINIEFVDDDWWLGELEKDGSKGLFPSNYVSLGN


Molecular target: T1, Abp1 SH3 (ABP1_YEAST), P15891
Assay: SPOT array

normalised SPOT signal, Boehringer light units (BLU); mean over the file's lines of this peptide	Binder
2600	VVRTSKHWVLPPRP [YKL109W 62-75]
40.3	VVDIEVPMEYPFKP [YDR177W 53-66]
79.3	VPPTQSLPNGKKP [YER035W 35-47]
66.3	WIRSTLNHIIPRRP [YML061C 4-17]
82.5	VPKSTHDPSLAKP [YER167W 235-247]
326	VSRFYQIPGTHRP [YBR235W 2-14]
135	VYYVSKAKLQPAKP [YAR007C 254-267]
88.1	VTDLIKFPLMDKP [YNR011C 599-611]
247	VQMRMDPNQQPEKP [YDR258C 83-96]
98	VRRKPHSPNKKKP [YDR223W 11-23]
93.8	VVYFSSIPPYMKP [YNR054C 115-127]
416	VRDAYEKTLPPKRP [YKL032C 424-437]
96	VMIIFTIPETYKP [YHR048W 242-254]
615	VVRIKGINKIPPKP [YGL076C 86-99]
86.6	VVVEFSSPNIAKP [YHR091C 181-193]
29.6	VWYISYGEWGPRRP [YNL052W 72-85]
201	WRSKRIEQLFPVRP [YDL150W 191-204]
107	VSHGDLNLINPMRP [YOL042W 270-283]
40.6	VNYVDYYPLPDKP [YGL137W 187-199]
77.3	VSSSSTIPVLPKP [YJL201W 369-381]
122	VLRLTDIEKTPQRP [YFL001W 315-328]

normalised SPOT signal, Boehringer light units (BLU); mean over the file's lines of this peptide	Binder
793	VSSTGSKSGPPPRP [YNL138W 345-358]
146	VVVMSTSDERPFRP [YGL165C 142-155]
461	VSFDLKTPLRAKP [YMR092C 479-491]
1240	WRYLPAPPVSIRP [YOR116C 258-270]
87.4	VLVTEKFPEVMKP [YMR208W 259-271]
116	VNNEIHYYYPPVKP [YDR321W 235-248]
62.5	VNPIGITPLGPKP [YMR251W 349-361]
135	WSIKLWDLSKPSKP [YAR003W 94-107]
93	VVDGNLAHETPVKP [YGR188C 429-442]
324	WSRHFFLPRSKRP [YBL012C 87-99]
5240	VSLHLVRKVAPTKP [YHR070W 474-487]
20.8	VPLQIVSPQSNKP [YDL140C 507-519]
39.9	VSHYHYGVKHPMKP [YGL194C 36-49]
214	VSSQPSLPRTLKP [YPL019C 812-824]
79	VTDFNYTPSHQKP [YIL106W 99-111]
812	VTKRPATSTPPRKP [YJR043C 299-312]
56.1	VSSSEIESVEPLKP [YMR219W 1122-1135]
69.6	VQVQTTTSILPLKP [YGR188C 415-428]
103	VNIEDITEPKPDKP [YDR363W 93-106]
78	WDGVIPTPAIIKP [YDL140C 556-568]
112	VVSSKGTSTYPVKP [YJR105W 266-279]
